What was measured:
[1] = biological target: Cx45 6E (stably expressed in MDCK cells) (not stated (human or mouse cDNA cloned)) (UniProt P28229); assay: co-IP
[2] = biological target: Cx45CT WT (Lyn-HA-Cx45CT-mVenusN and Lyn-Myc-Cx45CT-mVenusC) (not stated (human or mouse cDNA cloned)); assay: split reporter
Cx45 CT = Cx45 CT (UniProt P36383); conditions: cited from earlier work

Chain of UniProt P28229 (P28229 whole entry L335E/L338E/L349E/I353E/Y356E): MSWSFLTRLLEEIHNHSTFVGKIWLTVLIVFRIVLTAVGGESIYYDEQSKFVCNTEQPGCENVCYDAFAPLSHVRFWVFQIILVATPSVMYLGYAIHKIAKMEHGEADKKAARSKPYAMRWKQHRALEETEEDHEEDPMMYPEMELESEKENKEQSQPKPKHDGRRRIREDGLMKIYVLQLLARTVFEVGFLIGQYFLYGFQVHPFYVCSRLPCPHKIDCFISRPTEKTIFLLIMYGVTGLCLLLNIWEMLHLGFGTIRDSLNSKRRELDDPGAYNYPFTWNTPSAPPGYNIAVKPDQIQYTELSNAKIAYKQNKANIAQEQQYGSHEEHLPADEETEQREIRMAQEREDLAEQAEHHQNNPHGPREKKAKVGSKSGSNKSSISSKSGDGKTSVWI
Chain of Cx45 CT (P36383 265-396): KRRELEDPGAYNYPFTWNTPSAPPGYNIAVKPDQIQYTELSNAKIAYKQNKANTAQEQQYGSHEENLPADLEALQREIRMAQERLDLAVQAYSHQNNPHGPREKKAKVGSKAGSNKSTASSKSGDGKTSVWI

Work on “developmentally regulated brain protein (Drebrin) (natural protein)” yielded a fold increase of the co-immunoprecipitated amount relative to Cx45 WT [1] of 2 fold.

With “Cx45CT WT (Lyn-HA-Cx45CT-mVenusN and Lyn-Myc-Cx45CT-mVenusC) (domain or fragment)” the fold mVenus signal at the plasma membrane (normalized to Myc) over Cx45CT 6E [2] was 2.5 fold.

Substance β-tubulin (natural protein) has a fold decrease of the co-immunoprecipitated amount relative to Cx45 WT [1] of 3 fold.

For Cx45 CT (from UniProt P36383), the Kd (Cx45 CT) is listed as 100 nM.

“neural precursor cell expressed developmentally down-regulated protein 4 (Nedd4) (enzyme)” gave a fold decrease of the co-immunoprecipitated amount relative to Cx45 WT [1] of 2 fold.
